Data: US20130209489A1 (Amgen, published 2013)

Legend:
mature human myostatin [1] = target: T1, mature human myostatin (human, UniProt O14793 267-375); assay: cell-based or functional assay
mature human myostatin [2] = target: T1, mature human myostatin; assay: cell-based or functional assay; remark: listed apart in the source
[3] = target: T2, Peptide B (CNBr peptide, 85-101) (human); assay: BIAcore competition: 12A5-5 pre-incubated with the HPLC peptide fraction in solution, then passed over immobilized human myostatin
T2 construct: both are this molecule; also called Peptide D; Reduced CNBr peptide
T2 peptide: LYFNGKEQIIYGKIPAM
Procedure: (§1) The strategy for characterizing the epitopes bound by anti-myostatin neutralizing monoclonal antibodies was to use various CNBr—, LysC— and chymotrypsin-generated human myostatin peptides and determine which peptides could be bound by the antibody. In one aspect, this was tested in a BIAcore® competition binding assay where the binding of 12A5-5 to human myostatin immobilized on a BIAcore® chip was determined in the presence or absence of each of the various isolated HPLC peptide fractions. In the absence of any competing peptides, 12A5-5 was able to bind the human myostatin on the chip and produce an RU (resonance unit) response. […] This general procedure was repeated individually for each peptide. […] These binding patterns, coupled with the known identity of the various myostatin peptides were used to determine which regions of myostatin were important (or necessary) for the binding of antibody 12A5-5.

[4] = target: T3, Peptide F (LysC peptide, 79-90) (human); assay: as above
T3 peptide: MSPINMLYFNGK
Procedure: as §1

[5] = target: T4, Peptide H (reduced LysC peptide, 91-97) (human); assay: as above
T4 peptide: EQIIYGK
Procedure: as §1

[6] = target: T5, Peptide I (reduced LysC peptide, 55-78) (human); assay: as above
T5 construct: From TCEP reduction of peptide G
T5 peptide: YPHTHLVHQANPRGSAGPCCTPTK
Procedure: as §1

[7] = target: T6, Peptide J (reduced LysC peptide, 98-109) (human); assay: as above
T6 construct: From TCEP reduction of peptide G
T6 peptide: IPAMVVDRCGCS
Procedure: as §1

[8] = target: T7, Peptide K (reduced LysC peptide, 40-54) (human); assay: as above
T7 construct: From TCEP reduction of peptide G
T7 peptide: ANYCSGECEFVFLQK
Procedure: as §1

[9] = target: T8, Peptide M (reduced LysC peptide, 1-36) (human); assay: as above
T8 construct: From TCEP reduction of peptide G
T8 peptide: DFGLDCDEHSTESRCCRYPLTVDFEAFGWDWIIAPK
Procedure: as §1

[10] = target: T9, Peptide N (chymotryptic peptide, Cys knot, dimer) (human); assay: as above
T9 chain 1: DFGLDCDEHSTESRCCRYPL
T9 chain 2: KANYCSGECEFVF
T9 chain 3: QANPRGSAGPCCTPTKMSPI
T9 chain 4: GKIPAMVVDRCGCS
Procedure: as §1

[11] = target: T10, Peptide G (LysC peptide, Cys knot, dimer) (human); assay: BIAcore competition: 12A5-5 pre-incubated with the HPLC peptide fraction in solution, then passed over immobilized human myostatin; low response means the peptide binds the antibody
T10 construct: Four LysC peptides held together by disulfide bonds (cystine knot), dimeric through Cys73 (19.5 kD)
T10 chain 1: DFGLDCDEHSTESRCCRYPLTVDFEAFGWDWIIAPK
T10 chain 2: ANYCSGECEFVFLQK
T10 chain 3: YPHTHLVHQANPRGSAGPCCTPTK
T10 chain 4: IPAMVVDRCGCS
Procedure: as §1

[12] = target: T11, Peptide P (chymotryptic peptide, antibody-protected Cys knot, dimer) (human); assay: as above
T11 construct: Formed when myostatin pre-incubated with 12A5-5 was digested with chymotrypsin
T11 chain 1: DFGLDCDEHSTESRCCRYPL
T11 chain 2: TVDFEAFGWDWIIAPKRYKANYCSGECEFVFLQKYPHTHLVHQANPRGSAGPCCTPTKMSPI
T11 chain 3: GKIPAMVVDRCGCS
Procedure: as §1

B1: anti-myostatin neutralizing monoclonal antibody 12A5-5 (antibody, V domains shown)
VH: EVQLVESGGGLVQPGGSLRLSCAASGFTFSRYWMNWVRQAPGKGLEWVAQIRLKSDNYATHYAESVKGRFTISRDNAKNSLYLQMNSLRAEDTAVYYCTEGLDYWGQGTTVTVSS
VL: DIQMTQSPSSLSASVGDRVTITCKASQDINKYVAWYQQKPGKAPKLLIYYTSWLQPGVPSRFSGSGSGTDFTFTISSLQPEDIATYYCLQYDNLLYTFGQGTKLEIK
notes: in the KinExA assay it was detected with a goat anti-human-Fc antibody, so it carries a human Fc; also called Mab 12A5-5; MAb 12A5-5
- IC50 (nM), C2C12/pMARE luciferase reporter cell myostatin activity assay (mature human myostatin [1]): 1.85 nM
- Cell Assay (IC50), inhibition of myostatin activity (mature human myostatin [2]): 1.2 nM
- binding result [3]: no binding (tested: peptide concentration not printed)
- binding result [4]: no binding (tested: peptide concentration not printed)
- binding result [5]: no binding (tested: peptide concentration not printed)
- binding result [6]: no binding (tested: peptide concentration not printed)
- binding result [7]: no binding (tested: peptide concentration not printed)
- binding result [8]: no binding (tested: peptide concentration not printed)
- binding result [9]: no binding (tested: peptide concentration not printed)
- binding result [10]: no binding (tested: peptide concentration not printed)
- binding result [11]: binds
- binding result [12]: binds
